Publication PMC9243173, “Iron-regulated assembly of the cytosolic iron–sulfur cluster biogenesis machinery” (The Journal of Biological Chemistry, 2022)
Values belong to the binder of their own block, whether it stands above or below them.

Key:
Assay in all cases: affinity purification with mass spectrometry; anti-HA beads on lysates of Flp-In 293 cells expressing the 3HA-3FLAG-tagged bait (NUBP2, wildtype or mutant CIAO3); targeted proteomics assay (parallel reaction monitoring) of CIA components and substrates; CIAO3 purifications normalised to CIAO3; wildtype CIAO3 cells also treated with FAC or DFO for 8 h
Conditions in all cases: partners not purified
3HA-3FLAG-CIAO3-C71S = target: T1, 3HA-3FLAG-CIAO3-C71S (human, UniProt Q9H6Q4 1-476, C71S)
T1 construct: human CIAO3 (NARFL), as m13, with C71S (N-terminal Fe-S cluster site); also called C71S mutant; source: Flp-In T-REx 293, stably expressed, induced with doxycycline, in lysate; not shown: 3xHA, N-terminal, kept; 3xFLAG, N-terminal, kept

[1] = target: T2, 3HA-3FLAG-CIAO3-C71S/C190S/C395S (human, UniProt Q9H6Q4 1-476, C71S | C190S | C395S)
T2 construct: human CIAO3 (NARFL), as m13, with C71S, C190S and C395S; also called C71S/C190S/C395S mutant; source: Flp-In T-REx 293, stably expressed, induced with doxycycline, in lysate; not shown: 3xHA, N-terminal, kept; 3xFLAG, N-terminal, kept

[2] = target: T3, 3HA-3FLAG-CIAO3-C190S/C395S (human, UniProt Q9H6Q4 1-476, C190S | C395S)
T3 construct: human CIAO3 (NARFL), as m13, with C190S and C395S (C-terminal Fe-S cluster site); also called C190S/C395S mutant; source: Flp-In T-REx 293, stably expressed, induced with doxycycline, in lysate; not shown: 3xHA, N-terminal, kept; 3xFLAG, N-terminal, kept

[3] = target: T4, 3HA-3FLAG-CIAO3, wildtype (human, UniProt Q9H6Q4 1-476)
T4 construct: human CIAO3 (NARFL) cDNA, amplified with primers from the start codon to the stop codon, in pcDNA5/FRT with an N-terminal tandem 3xHA-3xFLAG tag; also called 3HA-3FLAG-tagged CIAO3; wildtype CIAO3; source: Flp-In T-REx 293, stably expressed, induced with doxycycline, in lysate; not shown: 3xHA, N-terminal, kept; 3xFLAG, N-terminal, kept
T4 sequence (Q9H6Q4 whole entry): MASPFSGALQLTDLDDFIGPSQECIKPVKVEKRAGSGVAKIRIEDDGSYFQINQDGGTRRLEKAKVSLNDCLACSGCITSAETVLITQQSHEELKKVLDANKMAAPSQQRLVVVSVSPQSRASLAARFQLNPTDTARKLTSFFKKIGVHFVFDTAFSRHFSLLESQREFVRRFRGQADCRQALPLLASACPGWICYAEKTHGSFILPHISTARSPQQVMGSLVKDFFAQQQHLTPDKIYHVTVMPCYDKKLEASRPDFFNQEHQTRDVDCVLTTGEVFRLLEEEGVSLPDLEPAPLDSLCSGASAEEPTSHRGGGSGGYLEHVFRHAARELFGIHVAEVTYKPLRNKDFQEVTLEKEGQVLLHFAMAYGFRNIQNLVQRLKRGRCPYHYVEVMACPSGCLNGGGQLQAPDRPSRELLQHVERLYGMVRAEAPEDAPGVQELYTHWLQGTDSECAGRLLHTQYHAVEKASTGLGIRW

T1 sequence (Q9H6Q4 whole entry C71S): as the sequence (Q9H6Q4 whole entry) above, with C71S counted along it
T2 sequence (Q9H6Q4 whole entry C71S/C190S/C395S): as the sequence (Q9H6Q4 whole entry) above, with C71S, C190S, C395S counted along it
T3 sequence (Q9H6Q4 whole entry C190S/C395S): as the sequence (Q9H6Q4 whole entry) above, with C190S, C395S counted along it

B1: MMS19 nucleotide excision repair protein homolog (MMS19) (natural protein, human (endogenous in Flp-In T-REx 293), UniProt Q96T76 1-1030, looked up)
chain: MAAAAAVEAAAPMGALWGLVHDFVVGQQEGPADQVAADVKSGNYTVLQVVEALGSSLENPEPRTRARAIQLLSQVLLHCHTLLLEKEVVHLILFYENRLKDHHLVIPSVLQGLKALSLCVALPPGLAVSVLKAIFQEVHVQSLPQVDRHTVYNIITNFMRTREEELKSLGADFTFGFIQVMDGEKDPRNLLVAFRIVHDLISRDYSLGPFVEELFEVTSCYFPIDFTPPPNDPHGIQREDLILSLRAVLASTPRFAEFLLPLLIEKVDSEVLSAKLDSLQTLNACCAVYGQKELKDFLPSLWASIRREVFQTASERVEAEGLAALHSLTACLSRSVLRADAEDLLDSFLSNILQDCRHHLCEPDMKLVWPSAKLLQAAAGASARACDSVTSNVLPLLLEQFHKHSQSSQRRTILEMLLGFLKLQQKWSYEDKDQRPLNGFKDQLCSLVFMALTDPSTQLQLVGIRTLTVLGAQPDLLSYEDLELAVGHLYRLSFLKEDSQSCRVAALEASGTLAALYPVAFSSHLVPKLAEELRVGESNLTNGDEPTQCSRHLCCLQALSAVSTHPSIVKETLPLLLQHLWQVNRGNMVAQSSDVIAVCQSLRQMAEKCQQDPESCWYFHQTAIPCLLALAVQASMPEKEPSVLRKVLLEDEVLAAMVSVIGTATTHLSPELAAQSVTHIVPLFLDGNVSFLPENSFPSRFQPFQDGSSGQRRLIALLMAFVCSLPRNVEIPQLNQLMRELLELSCCHSCPFSSTAAAKCFAGLLNKHPAGQQLDEFLQLAVDKVEAGLGSGPCRSQAFTLLLWVTKALVLRYHPLSSCLTARLMGLLSDPELGPAAADGFSLLMSDCTDVLTRAGHAEVRIMFRQRFFTDNVPALVQGFHAAPQDVKPNYLKGLSHVLNRLPKPVLLPELPTLLSLLLEALSCPDCVVQLSTLSCLQPLLLEAPQVMSLHVDTLVTKFLNLSSSPSMAVRIAALQCMHALTRLPTPVLLPYKPQVIRALAKPLDDKKRLVRKEAVSARGEWFLLGSPGS
notes: MMS19 nucleotide excision repair protein homolog, component of the CIA targeting complex, endogenous; source: endogenous, Flp-In T-REx 293 lysate
- fold decrease against wildtype CIAO3 (3HA-3FLAG-CIAO3-C71S): ~5 fold
- fold change against wildtype CIAO3 [1]: 2 fold

B2: nucleotide-binding protein 1 (NUBP1) (natural protein, human (endogenous in Flp-In T-REx 293), UniProt P53384 1-320, looked up)
chain: MEEVPHDCPGADSAQAGRGASCQGCPNQRLCASGAGATPDTAIEEIKEKMKTVKHKILVLSGKGGVGKSTFSAHLAHGLAEDENTQIALLDIDICGPSIPKIMGLEGEQVHQSGSGWSPVYVEDNLGVMSVGFLLSSPDDAVIWRGPKKNGMIKQFLRDVDWGEVDYLIVDTPPGTSDEHLSVVRYLATAHIDGAVIITTPQEVSLQDVRKEINFCRKVKLPIIGVVENMSGFICPKCKKESQIFPPTTGGAELMCQDLEVPLLGRVPLDPLIGKNCDKGQSFFIDAPDSPATLAYRSIIQRIQEFCNLHQSKEENLISS
notes: also called NBP35; source: endogenous, Flp-In T-REx 293 lysate
- fold reduction against wildtype CIAO3 [2]: > 32 fold
- fold reduction against wildtype CIAO3 (3HA-3FLAG-CIAO3-C71S): > 32 fold
- fold reduction against wildtype CIAO3 [1]: > 32 fold
- fold reduction in iron-deficient (DFO) against iron-replete (FAC) conditions [3]: ~4 fold

B4: cytosolic iron-sulfur assembly component 2B (CIAO2B) (natural protein, human (endogenous in Flp-In T-REx 293), UniProt Q9Y3D0 1-163, looked up)
chain: MVGGGGVGGGLLENANPLIYQRSGERPVTAGEEDEQVPDSIDAREIFDLIRSINDPEHPLTLEELNVVEQVRVQVSDPESTVAVAFTPTIPHCSMATLIGLSIKVKLLRSLPQRFKMDVHITPGTHASEHAVNKQLADKERVAAALENTHLLEVVNQCLSARS
notes: CIAO2B (cytosolic iron-sulfur assembly component 2B), component of the CIA targeting complex, endogenous; source: endogenous, Flp-In T-REx 293 lysate
- fold decrease against wildtype CIAO3 (3HA-3FLAG-CIAO3-C71S): ~5 fold
- fold change against wildtype CIAO3 [1]: 2 fold

Next, values leading:

- fold decrease against wildtype CIAO3 (3HA-3FLAG-CIAO3-C71S): ~5 fold
- fold change against wildtype CIAO3 [1]: 2 fold
B3: probable cytosolic iron-sulfur protein assembly protein CIAO1 (natural protein)
chain: not shown
notes: CIAO1, component of the CIA targeting complex, endogenous; source: endogenous, Flp-In T-REx 293 lysate

- fold reduction against wildtype CIAO3 [2]: > 32 fold
- fold reduction against wildtype CIAO3 (3HA-3FLAG-CIAO3-C71S): > 32 fold
- fold reduction against wildtype CIAO3 [1]: > 32 fold
- fold reduction in iron-deficient (DFO) against iron-replete (FAC) conditions [3]: ~4 fold
B5: nucleotide-binding protein 2 (NUBP2), endogenous (natural protein, human (endogenous in Flp-In T-REx 293), UniProt Q9Y5Y2 1-271, looked up)
chain: MEAAAEPGNLAGVRHIILVLSGKGGVGKSTISTELALALRHAGKKVGILDVDLCGPSIPRMLGAQGRAVHQCDRGWAPVFLDREQSISLMSVGFLLEKPDEAVVWRGPKKNALIKQFVSDVAWGELDYLVVDTPPGTSDEHMATIEALRPYQPLGALVVTTPQAVSVGDVRRELTFCRKTGLRVMGIVENMSGFTCPHCTECTSVFSRGGGEELAQLAGVPFLGSVPLDPALMRTLEEGHDFIQEFPGSPAFAALTSIAQKILDATPACLP
notes: also called CFD1; source: endogenous, Flp-In T-REx 293 lysate
